Measurements from PMC11098114 (Proceedings of the National Academy of Sciences of the …, 2024).
Changes are numbered by the printed parent chain.

B1: 3×Ala-MxEnc (natural protein, Myxococcus xanthus)
chain: MPDFLGHAENPLREEEWARLNETVIQVARRSLVGRRILDIYGPLGAGVQTVPYDEFQGVSPGAVDIVGEQETAMVFTDARKFKTIPIIYKDFLLHWRDIEAARTHNMPLDVSAAAGAAALCAQQEDELIFYGDARLGYEGLMTANGRLTVPLGDWTSPGGGFQAIVEATRKLNEQGHFGPYAVVLSPRLYSQLHRIYEAAAVLEIETIRQLASDGVYQSNRLRGESGVVVSTGRENMDLAVSMDMVAAYLGASRMNHPFRVLEALLLRIKHPDAICTLEGAGATERR
B2: 3×Asp-MxEnc (natural protein, Myxococcus xanthus)
chain: B1 chain with A199D, A200D, A201D

Target: the molecule itself
Test: SEC

Protein | binding result
B1 | binds
B2 | binds
